Six variants from article PMC10939263 (2024) can be followed below.

B1: SRC kinase associated phosphoprotein 1 (SKAP1), wild type, N2-fused [human] / FRK, C1-fused [not stated] (parent complex)
chain 1: MQAAALPEEIRWLLEDAEEFLAEGLRNENLSAVARDHRDHILRGFQQIKARYYWDFQPQGGDIGQDSSDDNHSGTLGLSLTSDAPFLSDYQDEGMEDIVKGAQELDNVIKQGYLEKKSKDHSFFGSEWQKRWCVVSRGLFYYYANEKSKQPKGTFLIKGYGVRMAPHLRRDSKKESCFELTSQDRRSYEFTATSPAEARDWVDQISFLLKDLSSLTIPYEEDEEEEEKEETYDDIDGFDSPSCGSQCRPTILPGSVGIKEPTEEKEEEDIYEVLPDEEHDLEEDESGTRRKGVDYASYYQGLWDCHGDQPDELSFQRGDLIRILSKEYNMYGWWVGELNSLVGIVPKEYLTTAFEVEER
chain 2: MSNICQRLWEYLEPYLPCLSTEADKSTVIENPGALCSPQSQRHGHYFVALFDYQARTAEDLSFRAGDKLQVLDTLHEGWWFARHLEKRRDGSSQQLQGYIPSNYVAEDRSLQAEPWFFGAIGRSDAEKQLLYSENKTGSFLIRESESQKGEFSLSVLDGAVVKHYRIKRLDEGGFFLTRRRIFSTLNEFVSHYTKTSDGLCVKLGKPCLKIQVPAPFDLSYKTVDQWEIDRNSIQLLKRLGSGQFGEVWEGLWNNTTPVAVKTLKPGSMDPNDFLREAQIMKNLRHPKLIQLYAVCTLEDPIYIITELMRHGSLQEYLQNDTGSKIHLTQQVDMAAQVASGMAYLESRNYIHRDLAARNVLVGEHNIYKVADFGLARVFKVDNEDIYESRHEIKLPVKWTAPEAIRSNKFSIKSDVWSFGILLYEIITYGKMPYSGMTGAQVIQMLAQNYRLPQPSNCPQQFYNIMLECWNAEPKERPTFETLRWKLEDYFETDSSYSDANNFIR
B2: SRC kinase associated phosphoprotein 1 (SKAP1), wild type, N2-fused [human] / FYN (isoform without exon 7), C1-fused [not stated] (parent complex)
chain 1: B1 chain 1
chain 2: not shown
B3: SRC kinase associated phosphoprotein 1 (SKAP1), wild type, N2-fused [human] / BLK, C1-fused [not stated] (parent complex)
chain 1: B1 chain 1
chain 2: not shown
B4: SRC kinase associated phosphoprotein 1 (SKAP1), wild type, N2-fused [human] / LYN, C1-fused [not stated] (parent complex)
chain 1: B1 chain 1
chain 2: MGCIKSKGKDSLSDDGVDLKTQPVRNTERTIYVRDPTSNKQQRPVPESQLLPGQRFQTKDPEEQGDIVVALYPYDGIHPDDLSFKKGEKMKVLEEHGEWWKAKSLLTKKEGFIPSNYVAKLNTLETEEWFFKDITRKDAERQLLAPGNSAGAFLIRESETLKGSFSLSVRDFDPVHGDVIKHYKIRSLDNGGYYISPRITFPCISDMIKHYQKQADGLCRRLEKACISPKPQKPWDKDAWEIPRESIKLVKRLGAGQFGEVWMGYYNNSTKVAVKTLKPGTMSVQAFLEEANLMKTLQHDKLVRLYAVVTREEPIYIITEYMAKGSLLDFLKSDEGGKVLLPKLIDFSAQIAEGMAYIERKNYIHRDLRAANVLVSESLMCKIADFGLARVIEDNEYTAREGAKFPIKWTAPEAINFGCFTIKSDVWSFGILLYEIVTYGKIPYPGRTNADVMTALSQGYRMPRVENCPDELYDIMKMCWKEKAEERPTFDYLQSVLDDFYTATEGQYQQQP
B5: SRC kinase associated phosphoprotein 1 (SKAP1), wild type, N2-fused [human] / SRMS, C1-fused [not stated] (parent complex)
chain 1: B1 chain 1
chain 2: MEPFLRRRLAFLSFFWDKIWPAGGEPDHGTPGSLDPNTDPVPTLPAEPCSPFPQLFLALYDFTARCGGELSVRRGDRLCALEEGGGYIFARRLSGQPSAGLVPITHVAKASPETLSDQPWYFSGVSRTQAQQLLLSPPNEPGAFLIRPSESSLGGYSLSVRAQAKVCHYRVSMAADGSLYLQKGRLFPGLEELLTYYKANWKLIQNPLLQPCMPQKAPRQDVWERPHSEFALGRKLGEGYFGEVWEGLWLGSLPVAIKVIKSANMKLTDLAKEIQTLKGLRHERLIRLHAVCSGGEPVYIVTELMRKGNLQAFLGTPEGRALRLPPLLGFACQVAEGMSYLEEQRVVHRDLAARNVLVDDGLACKVADFGLARLLKDDIYSPSSSSKIPVKWTAPEAANYRVFSQKSDVWSFGVLLHEVFTYGQCPYEGMTNHETLQQIMRGYRLPRPAACPAEVYVLMLECWRSSPEERPSFATLREKLHAIHRCHP

The first test covers variants of B1. Briefly: luciferase complementation assay (normalized luciferase ratio, NLR); HEK293T cells; one experiment; read off a plot.
On to chain 1 MQAAALPEEIRWLLEDAEEFLAEGLRNENLSAVARDHRDHILRGFQQIKARYYWDFQPQGGDIGQDSSDDNHSGTLGLSLTSDAPFLSDYQDEGMEDIVKGAQELDNVIKQGYLEKKSKDHSFFGSEWQKRWCVVSRGLFYYYANEKSKQPKGTFLIKGYGVRMAPHLRRDSKKESCFELTSQDRRSYEFTATSPAEARDWVDQISFLLKDLSSLTIPYEEDEEEEEKEETYDDIDGFDSPSCGSQCRPTILPGSVGIKEPTEEKEEEDIYEVLPDEEHDLEEDESGTRRKGVDYASYYQGLWDCHGDQPDELSFQRGDLIRILSKEYNMYGKWVGELNSLVGIVPKEYLTTAFEVEER [chain 1 W333K], for which the ratio to parent was ~1.2.

Consider chain 1 MQAAALPEEIRWLLEDAEEFLAEGLRNENLSAVARDHRDHILRGFQQIKARYYWDFQPQGGDIGQDSSDDNHSGTLGLSLTSDAPFLSDYQDEGMEDIVKGAQELDNVIKQGYLEKKSKKHSFFGSEWQKRWCVVSRGLFYYYANEKSKQPKGTFLIKGYGVRMAPHLRRDSKKESCFELTSQDRRSYEFTATSPAEARDWVDQISFLLKDLSSLTIPYEEDEEEEEKEETYDDIDGFDSPSCGSQCRPTILPGSVGIKEPTEEKEEEDIYEVLPDEEHDLEEDESGTRRKGVDYASYYQGLWDCHGDQPDELSFQRGDLIRILSKEYNMYGWWVGELNSLVGIVPKEYLTTAFEVEER [chain 1 D120K], for which the ratio to parent was ~1.9.

The variants in a further test derive from B2. Described as above.
Turning to chain 1 W333K, the ratio to parent is ~1.2.

The variants in the next test derive from B3. Described as above.
On to chain 1 W333K, for which the ratio to parent is ~1.8.

Variants of B4 are the subject of the next test. Described as above.
With chain 1 W333K, the ratio to parent is ~2.

The next test covers variants of B5. The test is described as above.
Turning to chain 1 MQAAALPEEIRWLLEDAEEFLAEGLRNENLSAVARDHRDHILRGFQQIKARYYWDFQPQGGDIGQDSSDDNHSGTLGLSLTSDAPFLSDYQDEGMEDIVKGAQELDNVIKQGYLEKKSKDHSFFGSEWQKRWCVVSRGLFYYYANEKSKQPKGTFLIKGYGVRMAPHLRRDSKKESCFELTSQDRRSYEFTATSPAEARDWVDQISFLLKDLSSLTIPYEEDEEEEEKEETYDDIDGFDSPSCGSQCRPTILPGSVGIKEPTEEKEEEDIYEVLPDEEHDLEEDESGTRRKGVDYASYYQGLWDCHGDQPDELSFQRGDLIRILSKEYNMYGKWVGELNSLVGIVPKEYLTTAFEVEER [chain 1 W333K], the ratio to parent was ~1.3.
